From patent US9809653B2, “Anti-LAMP1 antibodies and antibody drug conjugates, and uses thereof” (SANOFI, priority 2012, dated 2017)
“And” between values parts separate entries of the source, which are not always exact repeats. Equal values may be shown once. Read-outs that look alike come from different tables or passages of the source. Blank lines part the entries; values can stand above or below the molecule they belong to.

Legend:
[1] = target: T1, recombinant human LAMP1 (29-382 of SEQ ID NO: 28) (Homo sapiens, UniProt P11279); assay: ELISA on recombinant human LAMP1; assay type: binding
T1 construct: made in house; host or cells: HEK293 (293-F), transient expression, IMAC-purified
T1 sequence (P11279 with tags, fused parts or gaps): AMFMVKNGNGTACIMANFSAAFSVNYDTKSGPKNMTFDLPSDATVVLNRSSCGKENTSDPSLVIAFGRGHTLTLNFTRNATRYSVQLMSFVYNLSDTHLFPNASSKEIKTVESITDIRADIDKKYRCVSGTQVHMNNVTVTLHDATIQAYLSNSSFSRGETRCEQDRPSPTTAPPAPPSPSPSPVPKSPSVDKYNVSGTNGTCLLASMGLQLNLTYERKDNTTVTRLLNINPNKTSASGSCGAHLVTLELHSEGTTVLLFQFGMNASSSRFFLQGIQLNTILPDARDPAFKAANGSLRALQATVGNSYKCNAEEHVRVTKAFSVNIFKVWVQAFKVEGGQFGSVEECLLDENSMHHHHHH

recombinant human LAMP2 = target: T2, recombinant human LAMP2 (Homo sapiens, UniProt P13473); assay: Specificity ELISA on recombinant human LAMP2; assay type: binding
T2 construct: purchased R&D Systems 6228-LM
T2 sequence (P13473 with tags, fused parts or gaps): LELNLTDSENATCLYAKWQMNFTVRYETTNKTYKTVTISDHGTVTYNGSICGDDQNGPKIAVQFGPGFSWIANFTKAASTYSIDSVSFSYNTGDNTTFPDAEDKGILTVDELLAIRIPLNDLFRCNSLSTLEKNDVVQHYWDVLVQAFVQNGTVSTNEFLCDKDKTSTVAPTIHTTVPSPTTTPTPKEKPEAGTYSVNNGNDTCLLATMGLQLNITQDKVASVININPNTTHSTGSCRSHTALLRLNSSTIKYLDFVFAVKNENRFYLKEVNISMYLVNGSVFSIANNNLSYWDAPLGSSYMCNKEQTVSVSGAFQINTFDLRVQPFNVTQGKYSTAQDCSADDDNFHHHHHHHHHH
Experimental: LAMP2 is the closest member of the LAMP family with 35% sequence identity to LAMP1. […] Anti-LAMP1 antibodies were added to the plates and detected by using rabbit anti-mouse IgG conjugated with horseradish peroxidase (Sigma; #A9044). Antibody binding was visualized by adding TMB-H2O2 buffer and read at a wavelength of 450 nm.
LAMP2 is the closest member of the LAMP family with 35% sequence identity to LAMP1. Specificity of MAb4 was evaluated by ELISA as described in example 4.6 with either LAMP1 or LAMP2 soluble proteins, as shown in FIG. 41.

[2] = target: T3, Hybrid LAMP1 / glycan-deleted LAMP1 transmembrane proteins (Mus musculus, UniProt P11438, E181G/G176S/K100R/K180R/L93T/N177S/S175N/T102A/Y92H); assay: Binding onto membrane-anchored hybrid or mutated LAMP1 proteins (293-F cells) by flow cytometry; parameters: species or system human/mouse; conditions: pXL6041 mLAMP1_hseq6-11_ΔGYQTI
T3 construct: expressed in transfected cells; host or cells: 293-F (HEK293-derived), transient transfection
T3 sequence (P11438 with tags, fused parts or gaps Y92H/L93T/K100R/T102A/S175N/G176S/N177S/K180R/E181G): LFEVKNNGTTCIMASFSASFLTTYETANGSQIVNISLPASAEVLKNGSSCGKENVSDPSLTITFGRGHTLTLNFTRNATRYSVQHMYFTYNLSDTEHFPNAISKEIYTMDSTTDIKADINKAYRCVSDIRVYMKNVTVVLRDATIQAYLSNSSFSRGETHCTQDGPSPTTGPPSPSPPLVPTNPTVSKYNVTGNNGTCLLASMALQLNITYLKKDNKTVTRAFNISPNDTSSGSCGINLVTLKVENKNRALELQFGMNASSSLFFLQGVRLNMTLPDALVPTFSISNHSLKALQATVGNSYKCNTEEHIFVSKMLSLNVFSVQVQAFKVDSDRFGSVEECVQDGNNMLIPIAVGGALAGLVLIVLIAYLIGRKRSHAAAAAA
Experimental: (§1) Different LAMP1 proteins were expressed at the cell membrane of HEK293 cells after transient expression from mammalian plasmids encoding the entire coding sequence of LAMP1 deleted of the intracellular lysosome-targeting motif GYQTI and substituted by a 5-Ala repeat sequence.
(§2) Two days post transfection cells were processed, analyzed by flow cytometry (Guava® easyCyte™ 8HT) as mentioned in example 4.7, and the mean fluorescence was recorded. This fluorescence represents a semi-quantitative assessment of binding.

[3] = target: T4, Hybrid LAMP1 / glycan-deleted LAMP1 transmembrane proteins (Homo sapiens, UniProt P11279, A49S/D55E/N45S/N53T/S51L/V52T); assay: as above; parameters: species or system human/mouse; conditions: pXL6013 LAMP1_mseq2_ΔGYQTI; Table 18
T4 construct: expressed in transfected cells; host or cells: 293-F (HEK293-derived), transient transfection
T4 sequence (P11279 with tags, fused parts or gaps N45S/A49S/S51L/V52T/N53T/D55E): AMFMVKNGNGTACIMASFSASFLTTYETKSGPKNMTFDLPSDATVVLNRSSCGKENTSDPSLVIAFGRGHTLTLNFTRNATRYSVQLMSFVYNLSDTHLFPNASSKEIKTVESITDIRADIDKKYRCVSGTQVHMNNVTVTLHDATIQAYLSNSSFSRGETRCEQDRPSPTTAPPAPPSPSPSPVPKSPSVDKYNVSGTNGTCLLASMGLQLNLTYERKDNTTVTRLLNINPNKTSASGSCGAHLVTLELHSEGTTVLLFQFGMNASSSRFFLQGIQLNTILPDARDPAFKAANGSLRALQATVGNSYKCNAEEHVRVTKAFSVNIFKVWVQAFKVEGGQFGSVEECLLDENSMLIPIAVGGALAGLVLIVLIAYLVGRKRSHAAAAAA
Experimental: as §1, §2

[4] = target: T5, Hybrid LAMP1 / glycan-deleted LAMP1 transmembrane proteins (Homo sapiens, UniProt P11279, D66S/F65I/K57A/K61Q/M63V/N62I/P60S/S58N/T64N); assay: as above; parameters: species or system human/mouse; conditions: pXL6014 LAMP1_mseq3_ΔGYQTI; Table 18
T5 construct: expressed in transfected cells; host or cells: 293-F (HEK293-derived), transient transfection
T5 sequence (P11279 with tags, fused parts or gaps K57A/S58N/P60S/K61Q/N62I/M63V/T64N/F65I/D66S): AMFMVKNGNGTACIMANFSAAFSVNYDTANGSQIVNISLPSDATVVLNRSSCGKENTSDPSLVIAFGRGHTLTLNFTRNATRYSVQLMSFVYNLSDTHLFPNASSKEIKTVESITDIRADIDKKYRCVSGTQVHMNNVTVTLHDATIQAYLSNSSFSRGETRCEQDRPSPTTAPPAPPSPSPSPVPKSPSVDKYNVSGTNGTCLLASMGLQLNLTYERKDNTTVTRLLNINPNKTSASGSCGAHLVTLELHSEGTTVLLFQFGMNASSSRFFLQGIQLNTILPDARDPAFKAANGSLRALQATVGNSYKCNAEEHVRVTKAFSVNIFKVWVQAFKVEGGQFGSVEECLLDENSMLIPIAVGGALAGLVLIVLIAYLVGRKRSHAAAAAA
Experimental: as §1, §2

[5] = ELISA (Table 7), read-out: EC50
[6] = ELISA (Table 13), read-out: EC50 (nM) human LAMP1
[7] = ELISA (Table 21), read-out: EC50 obtained for murine hybridoma mAbs hLAMP1

EC50 [1, 5]: 0.18 nM | EC50 [1, 6]: 0.18 nM | EC50 [1, 7]: 0.18 nM | EC50 ([1]; ELISA, read-out: EC50 to LAMP1): 0.16 nM and ~0.2 nM | binding to LAMP2 (recombinant human LAMP2): No binding | Binding call ([2]; Table 17 Experiment no1): Binding | Mean fluorescence ([2]; Table 17 Experiment no1): 680 | Binding call ([2]; Table 17 Experiment no2): binding | Mean fluorescence ([2]; Table 17 Experiment no2): 211 | Binding call [3]: Binding | Mean fluorescence [3]: 990 | Binding call [4]: Binding | Mean fluorescence [4]: 888
B1: MAb1: murine monoclonal anti-LAMP1 antibody, VH SEQ ID NO: 1, VL SEQ ID NO: 5 (antibody, V domains shown)
VH: QVQLQQSGAELVKPGASVKMSCKASGYIFTNYNIHWVKKSPGQGLEWIGAIYPGNGDAPYSQKFKDKATLTADKSSSTTYMQLSRLTSEDSAVYYCVRANWDVAFAYWGQGTLVSVSA
VL: DIQMTQSPPSLSASLGGKVTITCKASQDIDRYMAWYQDKPGKGPRLLIHDTSTLQPGIPSRFSGSGSGRDYSFSISNLEPEDIATYYCLQYDNLWTFGGGTKLEIK
modifications: Antibody Fragment; antibody fragment

EC50 [1, 5]: 0.25 nM | EC50 [1, 6]: 0.25 nM | EC50 [1, 7]: 0.25 nM | EC50 ([1]; ELISA, read-out: EC50 to LAMP1): ~0.3 nM | binding to LAMP2 (recombinant human LAMP2): No binding | Binding call ([2]; Table 17 Experiment no1): No binding | Mean fluorescence ([2]; Table 17 Experiment no1): 28 | Binding call [3]: Binding | Mean fluorescence [3]: 694 | Binding call [4]: Binding | Mean fluorescence [4]: 694
B2: MAb2: murine monoclonal anti-LAMP1 antibody, VH SEQ ID NO: 8, VL SEQ ID NO: 12 (antibody, V domains shown)
VH: QVQLQQSAAELARPGASVKMSCKASGYTFTSYTMHWVKQRPGQGLEWIGYFNPSSGYPEYNQKFKDKTTLTADKSSNTAFIQLNSLTSEDSAVYYCSRGYYYGSRGYALDFWGQGASVTVSS
VL: NIVLTQSPVSLAVSLGQRATISCRASESVDINGNTFMHWYQQKPGQSPKLVIYAASNIESGVPARFSGSGSSTDFTFTIDPVEADDVATYYCQQNIEDPWTFGGGTKVEIK
modifications: antibod fragment; antibody fragment
